{"source": "paper PMC6451128", "about": "“Structural and functional analysis of the nucleotide and DNA binding activities of the human PIF1 helicase”", "settings_in_all_cases": "protein: recombinant; tags: His tag removed, GSRM left; label: 5' 32P (PNK)", "key": {"[1]": {"molecular_target": "T1, hPIF1HD R290A (human, UniProt Q9H611 206-620, R290A)", "T1 sequence": "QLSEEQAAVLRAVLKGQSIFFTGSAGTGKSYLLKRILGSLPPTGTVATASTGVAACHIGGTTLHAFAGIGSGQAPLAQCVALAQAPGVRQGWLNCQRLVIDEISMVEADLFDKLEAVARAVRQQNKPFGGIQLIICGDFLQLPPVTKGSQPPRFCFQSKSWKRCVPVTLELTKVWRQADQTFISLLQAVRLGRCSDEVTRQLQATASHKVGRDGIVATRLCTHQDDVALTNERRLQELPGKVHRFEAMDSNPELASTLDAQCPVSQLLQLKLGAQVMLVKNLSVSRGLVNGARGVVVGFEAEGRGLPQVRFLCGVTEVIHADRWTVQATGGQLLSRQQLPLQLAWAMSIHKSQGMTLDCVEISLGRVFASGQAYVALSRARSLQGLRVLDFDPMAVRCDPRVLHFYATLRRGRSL", "test": "EMSA; no nucleotide; apparent, near saturation not reached; 20 mM HEPES-NaOH pH 7.5 (Results say pH 7.2), 135 mM NaCl, 5% glycerol, 1 mM DTT, 1 mg/ml BSA, 20 min at 20 C; 0.4 nM T(35); G4 assay: 0.1 nM G4 DNA, 2% PEG 8000 instead of glycerol, 5 uM T(35) competitor"}, "[2]": {"molecular_target": "T2, hPIF1HD N486A (human, UniProt Q9H611 206-620, N486A)", "T2 sequence": "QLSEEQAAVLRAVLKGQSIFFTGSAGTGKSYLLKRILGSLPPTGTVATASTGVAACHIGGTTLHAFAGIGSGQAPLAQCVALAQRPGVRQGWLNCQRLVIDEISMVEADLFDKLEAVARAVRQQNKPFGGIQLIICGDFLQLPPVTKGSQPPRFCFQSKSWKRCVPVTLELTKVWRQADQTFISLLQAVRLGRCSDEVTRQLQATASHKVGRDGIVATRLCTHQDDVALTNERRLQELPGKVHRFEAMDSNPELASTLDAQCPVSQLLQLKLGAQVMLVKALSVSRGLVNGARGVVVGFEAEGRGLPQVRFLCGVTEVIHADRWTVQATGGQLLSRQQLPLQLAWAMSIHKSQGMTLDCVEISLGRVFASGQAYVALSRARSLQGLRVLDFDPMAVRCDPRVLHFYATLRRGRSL", "test": "EMSA; no nucleotide; 20 mM HEPES-NaOH pH 7.5 (Results say pH 7.2), 135 mM NaCl, 5% glycerol, 1 mM DTT, 1 mg/ml BSA, 20 min at 20 C; 0.4 nM T(35); G4 assay: 0.1 nM G4 DNA, 2% PEG 8000 instead of glycerol, 5 uM T(35) competitor"}, "[3]": {"molecular_target": "T3, hPIF1HD F573A (human, UniProt Q9H611 206-620, F573A)", "T3 sequence": "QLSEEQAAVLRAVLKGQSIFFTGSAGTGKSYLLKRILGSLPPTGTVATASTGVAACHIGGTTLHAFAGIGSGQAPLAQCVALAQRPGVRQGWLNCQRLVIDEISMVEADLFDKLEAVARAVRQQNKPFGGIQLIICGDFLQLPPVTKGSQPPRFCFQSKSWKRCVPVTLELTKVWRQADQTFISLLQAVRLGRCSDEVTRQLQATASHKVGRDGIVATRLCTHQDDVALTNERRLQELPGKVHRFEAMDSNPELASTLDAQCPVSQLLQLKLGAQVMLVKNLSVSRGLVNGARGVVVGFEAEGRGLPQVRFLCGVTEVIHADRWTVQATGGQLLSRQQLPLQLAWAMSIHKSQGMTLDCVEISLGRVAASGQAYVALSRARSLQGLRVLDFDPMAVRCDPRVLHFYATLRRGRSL", "test": "EMSA; no nucleotide; 20 mM HEPES-NaOH pH 7.5 (Results say pH 7.2), 135 mM NaCl, 5% glycerol, 1 mM DTT, 1 mg/ml BSA, 20 min at 20 C; 0.4 nM T(35); G4 assay: 0.1 nM G4 DNA, 2% PEG 8000 instead of glycerol, 5 uM T(35) competitor"}, "[4]": {"molecular_target": "T4, hPIF1HD N495A (human, UniProt Q9H611 206-620, N495A)", "T4 sequence": "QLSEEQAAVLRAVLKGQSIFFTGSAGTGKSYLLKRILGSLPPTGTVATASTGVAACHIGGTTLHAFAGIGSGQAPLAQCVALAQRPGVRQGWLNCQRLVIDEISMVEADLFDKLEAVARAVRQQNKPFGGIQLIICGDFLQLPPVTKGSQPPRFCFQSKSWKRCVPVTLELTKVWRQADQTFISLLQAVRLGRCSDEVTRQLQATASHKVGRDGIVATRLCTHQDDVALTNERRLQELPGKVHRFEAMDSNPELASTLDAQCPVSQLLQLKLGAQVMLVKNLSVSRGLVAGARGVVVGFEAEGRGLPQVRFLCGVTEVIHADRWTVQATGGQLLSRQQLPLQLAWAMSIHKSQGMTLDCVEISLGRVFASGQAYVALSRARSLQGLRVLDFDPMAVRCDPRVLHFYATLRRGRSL", "test": "EMSA; no nucleotide; 20 mM HEPES-NaOH pH 7.5 (Results say pH 7.2), 135 mM NaCl, 5% glycerol, 1 mM DTT, 1 mg/ml BSA, 20 min at 20 C; 0.4 nM T(35); G4 assay: 0.1 nM G4 DNA, 2% PEG 8000 instead of glycerol, 5 uM T(35) competitor"}}, "data": [{"binder": "TTTTTTTTTTTTTTTTTTTTTTTTTTTTTTTTTTT (ssDNA)", "note": "[poly-T(35)]", "values": [{"measurement": "Kd", "setting": "[1]", "result": "~40.4", "unit": "nM"}, {"measurement": "binding signal", "setting": "[2]", "result": "> 50 fold decrease in affinity vs WT"}, {"measurement": "binding signal", "setting": "[3]", "result": "> 50 fold decrease in affinity vs WT"}, {"measurement": "binding signal", "setting": "[4]", "result": "> 50 fold decrease in affinity vs WT"}]}]}
